Patent US7094554

Columns and labels:
[1] = molecular target: P. gossypiella (pink bollworm) midgut brush border membrane vesicle (BBMV) proteins (Pectinophora gossypiella); test: saturation binding, fixed 125I-toxin with increasing BBMV
[2] = molecular target: P. gossypiella (pink bollworm) midgut brush border membrane vesicle (BBMV) proteins (Pectinophora gossypiella); test: homologous competition assay, 125I-toxin on BBMV
[3] = molecular target: P. gossypiella (pink bollworm) midgut brush border membrane vesicle (BBMV) proteins (Pectinophora gossypiella); test: competition with 125I-Cry1Ac on BBMV, 1000 nM unlabeled toxin
[4] = molecular target: P. gossypiella (pink bollworm) midgut brush border membrane vesicle (BBMV) proteins (Pectinophora gossypiella); test: competition with 125I-Cry1Ac on BBMV
[5] = molecular target: P. gossypiella (pink bollworm) midgut brush border membrane vesicle (BBMV) proteins (Pectinophora gossypiella); test: homologous competition, 125I-Cry1Ac against unlabeled Cry1Ac on BBMV
[6] = molecular target: P. gossypiella (pink bollworm) midgut brush border membrane vesicle (BBMV) proteins (Pectinophora gossypiella); test: homologous competition, 125I-Cry1Ab against unlabeled Cry1Ab on BBMV
[7] = molecular target: P. gossypiella (pink bollworm) midgut brush border membrane vesicle (BBMV) proteins (Pectinophora gossypiella); test: homologous competition, 125I-Cry1Aa against unlabeled Cry1Aa on BBMV

Substance	fold difference in binding compared to Cry1Ab [1]	fold higher binding compared to Cry1Aa [1]	maximum saturable binding at 400 µg/ml of BBMV [1]	Kd [2]	concentration of binding sites (Bmax) [2]	percent reduction of 125I-Cry1Ac binding at 1000 nM [3]	IC50 [4]	IC50 [5]	IC50 [6]	IC50 [7]
Cry1Ac toxin (trypsinized 60 kD toxin) (from UniProt P05068 29-623) (ligand)	30 fold	4 fold	1.5 ng	0.0128 µM	8.6 pmol/mg	95%	0.01 µM	0.01 µM		
Cry1Ab toxin (trypsinized 60 kD toxin) (from UniProt P0A370 29-620) (ligand)			0.05 ng	0.0124 µM	3.6 pmol/mg	82%	0.1 µM		0.01 µM	
Cry1Aa toxin (trypsinized 60 kD toxin) (from UniProt P0A366 29-619) (ligand)			0.35 ng	0.0165 µM	3.7 pmol/mg	80%	0.1 µM			0.01 µM
